B1: 抗MERS-CoV鼠单克隆抗体7G5 (antibody, V domains shown)
VH: EVQGQVSGLKLVVEGASVLKSCTSTGFLSGMGLVMPGGSNHSWVQEVPEIVLEWSGDWSANYSQDGLITSKATASADTTDSTAYLQLSEFDSEDTAVSFSCASNWLMLYMASLNWGQGEDDTVQS
VL: DISLTRSPSTLSATPQESVSLSCKQLISSYLMWTQWYQSKSHESLELTEKVELIYSNSHLHTGIPFSFSGDDSGTDFFLKVNVNSTEDFGEYFCSCQDQNTSERGDFGQATKLLEK
B2: 抗MERS-CoV鼠单克隆抗体6E4 (antibody, V domains shown)
VH: EVDLSESLGGQVKVTGSLKLDEAASGSMHGGDVKEGASLWLWVRVTPEIELEWRDAQGVAFISAGESSTYRFTTSRDNARSDRYLQMSELRKLDTAFIYCGRYRVTLSTLQEYSWGQGDWVTTDA
VL: DIQETQTRSVLSAALGSRVTISCSMDIANYVNEYQWYQSPKPDFDVKLSIYEVLIYRSVRLQSGVPSRFSKKGSLDDYSLTISCFEPEDVEIYCNDCQILGSELPEFGDFTKIEILR

Molecular target: 重组MERS-CoV-S蛋白 (MERS-CoV) (UniProt K9N5Q8)
Experiment: indirect ELISA, hybridoma supernatant on coated MERS-S protein

UniProt K9N5Q8, sequence (K9N5Q8 324-644 limits assumed): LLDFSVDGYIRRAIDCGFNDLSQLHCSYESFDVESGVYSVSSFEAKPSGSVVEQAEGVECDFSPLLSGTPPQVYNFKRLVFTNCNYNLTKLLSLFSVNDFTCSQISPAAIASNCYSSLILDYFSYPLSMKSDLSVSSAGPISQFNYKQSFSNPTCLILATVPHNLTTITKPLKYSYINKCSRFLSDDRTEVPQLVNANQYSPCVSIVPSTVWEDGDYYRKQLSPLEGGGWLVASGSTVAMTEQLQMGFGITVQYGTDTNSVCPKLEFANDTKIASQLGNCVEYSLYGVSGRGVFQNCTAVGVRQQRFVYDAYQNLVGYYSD

| Binder | 效价 (titer (1:dilution)) | 敏感性 [ng/mL] |
| --- | --- | --- |
| B1 | 256000 | 0.561 |
| B2 | 256000 | 2.31 |

— patent publication CN114989295A
